Measured values taken from patent US20250367270A1.
pKd: −log10 of the molar value.

Target: SARS-CoV-2 recombinant spike HexaPro protein (SARS-CoV-2) (UniProt P0DTC2)
Assay: SPR
Details: Fc fusion

FcACE2 dimer construct (Fc-linker-ACE2)
pKd: 9.37
